Measured values: patent US20260297185 (published 2026)

Molecular target: T1, mouse DLK1 (moDLK1) (mouse, UniProt Q09163)
T1 chain: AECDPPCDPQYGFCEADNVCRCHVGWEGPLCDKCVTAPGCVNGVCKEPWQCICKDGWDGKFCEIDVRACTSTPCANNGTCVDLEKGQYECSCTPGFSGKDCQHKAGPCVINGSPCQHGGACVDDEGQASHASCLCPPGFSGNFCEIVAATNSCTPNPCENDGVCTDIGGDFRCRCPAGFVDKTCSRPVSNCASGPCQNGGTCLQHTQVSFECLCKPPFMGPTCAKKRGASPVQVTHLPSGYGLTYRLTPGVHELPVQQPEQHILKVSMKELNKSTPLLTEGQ

B1: I18 (antibody, V domains shown)
VH: QVQLKESGPGLVAPSQSLSITCTVSGFSLILYGVHWVRQPPGKGLEWLGLIWAGGSTNYNSALMSRLSISKDNSKSQVFLKMNSLQTDDTAMYYCVRKHSNYLAMDYWGQGTSVTVSS
VL: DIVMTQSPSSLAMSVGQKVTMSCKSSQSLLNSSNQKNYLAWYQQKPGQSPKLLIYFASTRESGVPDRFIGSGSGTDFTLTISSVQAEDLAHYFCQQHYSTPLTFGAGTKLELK
binding result: no binding
